Legend:
[1] = Rhodamine lipase assay with crude plant leaf extracts; type: biochemical; details: 0.025 ml droplets (crude leaf extract or 20 U porcine lipase); 30 C overnight
Text: For transient expression assays of bovine PGE, the plant transformation and expression vectors constructed in Example 12 were moved into A. tumefaciens strain GV2260 by either electroporation or bacterial conjugation as described (Kapila et al., 1997). GV2260 carrying pIPG745 or pIPG746 was used for transient expression in tobacco, pepper, tomato, citrus, geranium, and rice plants as described (Kapila et al. 1997; Duan et al., 1999; Wroblewski et al. 2005). Cultures of Agrobacterium harboring the constructs of interest were grown in minimal medium in the presence of acetosyringone to induce the Agrobacterium vir genes. The optical density of the cultures was maintained at 0.008 for pepper and tomato and at 0.25 for citrus, geranium and rice. Strain GV2260 was flooded into healthy, young, fully expanded leaves of vigorous plants into the apoplastic space through open stomata by injection using a tuberculin syringe without a needle, flooding entire leaves. […]
Two lipase/esterase activity assays were used. […] Lower intensity fluorescence was also observed from the empty vector controls. In order to quantify the difference, 0.2 ml of the rhodamine olive oil suspension was mixed with 0.1 ml of plant extract and allowed to incubate at 30 C for 24 hrs. Fluorescence was measured using a Tecan Spectraluor Plus spectrofluorimeter (excitation=360 nm; emission=535 nm).

[2] = Phenol red lipase/esterase assay with crude plant leaf extracts; type: biochemical
Text: In this Figure, the first tube on the left (labeled “Buffer”) contains phenol red buffer and Tween 20 (the dark red color appears dark in this black and white figure); the second tube to the right (“SL”) has 4 Units of Sigma porcine pancreatic lipase added (the bright yellow color appears light); the third tube to the right (labeled “731”) has a twenty microliter droplet of a crude tomato plant leaf extract from leaves inoculated 4 days earlier with GV2260 carrying “empty” (ie., no lipase gene) expression vector pIPG731 (the dark red color appears dark), and the fourth tube to the right (“768 WI”) has a twenty microliter droplet of crude tomato plant leaf extract from leaves inoculated four days earlier with GV2260 carrying cloned bovine pregastric esterase expressed in pIPG768 (the bright yellow color appears light). Tomato leaf tissue particles may be seen floating in the third and fourth tubes to the right. […] The photo was taken 16 hrs. after start of the assay.
For transient expression assays of bovine PGE, the plant transformation and expression vectors constructed in Example 12 were moved into A. tumefaciens strain GV2260 by either electroporation or bacterial conjugation as described (Kapila et al., 1997). GV2260 carrying pIPG745 or pIPG746 was used for transient expression in tobacco, pepper, tomato, citrus, geranium, and rice plants as described (Kapila et al. 1997; Duan et al., 1999; Wroblewski et al. 2005). Cultures of Agrobacterium harboring the constructs of interest were grown in minimal medium in the presence of acetosyringone to induce the Agrobacterium vir genes. The optical density of the cultures was maintained at 0.008 for pepper and tomato and at 0.25 for citrus, geranium and rice. Strain GV2260 was flooded into healthy, young, fully expanded leaves of vigorous plants into the apoplastic space through open stomata by injection using a tuberculin syringe without a needle, flooding entire leaves. After 3-4 days, two grams of leaf tissue (fresh weight), was ground in liquid nitrogen to a fine powder, and 0.5 ml of ice cold phosphate buffered saline (PBS; 137 mM NaCl, 2.7 mM KCl, 10 mM potassium phosphate, pH 7.4) was added and mixed thoroughly at 4 C. The mixture was mixed on an orbital shaker at 4 C for 30 minutes, and plant debris was pelleted at 10,000×g for 15 minutes and discarded. The supernatants from these crude plant leaf extracts were directly used in lipase/esterase assays.
The second activity assay was a phenol red lipase/esterase assay using tributyrin, olive oil or Tween 20 as substrates as described by Singh et al. (2006), except that liquid medium, rather than solidified agar medium, was used. Twenty microliter droplets of crude plant leaf extracts and the positive control were placed in the tributyrin/phenol red medium containing tributyrin, olive oil or Tween 20 and incubated at 30 C overnight. […] Transient expression of bovine PGE was confirmed in tobacco, pepper, tomato, citrus, geranium, and rice plants.
For transient expression assays, the plant transformation and expression vectors constructed in Example 15 were moved into A. tumefaciens strain GV2260 by electroporation. GV2260 carrying pIPG823 was used for transient expression in tobacco and geranium plants exactly as described in Example 20. The supernatants from crude plant leaf extracts were directly used in phenol red lipase/esterase assays using tributyrin and olive oil as substrates exactly as described in Example 20.

B1: porcine lipase: Commercial porcine pancreatic lipase, positive control of the lipase/esterase assays (protein, UniProt P00591 1-450, looked up)
Pancreatic triacylglycerol …: SEVCFPRLGCFSDDAPWAGIVQRPLKILPWSPKDVDTRFLLYTNQNQNNYQELVADPSTITNSNFRMDRKTRFIIHGFIDKGEEDWLSNICKNLFKVESVNCICVDWKGGSRTGYTQASQNIRIVGAEVAYFVEVLKSSLGYSPSNVHVIGHSLGSHAAGEAGRRTNGTIERITGLDPAEPCFQGTPELVRLDPSDAKFVDVIHTDAAPIIPNLGFGMSQTVGHLDFFPNGGKQMPGCQKNILSQIVDIDGIWEGTRDFVACNHLRSYKYYADSILNPDGFAGFPCDSYNVFTANKCFPCPSEGCPQMGHYADRFPGKTNGVSQVFYLNTGDASNFARWRYKVSVTLSGKKVTGHILVSLFGNEGNSRQYEIYKGTLQPDNTHSDEFDSDVEVGDLQKVKFIWYNNNVINPTLPRVGASKITVERNDGKVYDFCSQETVREEVLLTLNPC
Q: What does the source list for B1?
A: Fluorescence on rhodamine olive oil agar plates [1]: Bright fluorescent spots; Phenol red indicator tube color (FIG. 2) ([2]; Tween 20 substrate, 16 hrs after start, tomato leaf extract or 4 Units lipase): bright yellow; Phenol red indicator color change ([2]; substrates tributyrin and olive oil, extracts of tobacco and geranium leaves, nematode esterase construct): color change from red to bright yellow; Phenol red indicator color change ([2]; substrates tributyrin, olive oil or Tween 20, twenty microliter droplets, 30 C overnight, bovine PGE constructs): color change from red to bright yellow; Substrates utilized in phenol red lipase/esterase assay ([2]; transiently plant-expressed enzyme or positive control): utilized all three substrates: tributyrin, olive oil and Tween 20
